Here are results for 17 molecules from patent US20240392002A1 (EXELIXIS, published 2024).

The target in one assay is T1, ROR1 Ig-like domain (human, UniProt Q01973 42-147).
T1 construct: also called Acro Cat. No. RO1-H5221
The assay is described as follows: BLI, IgG1 on biosensor, soluble ROR1 domain. The text has this:
(§1) To measure binding affinity in ROR binder discovery campaigns, the VL and VH domains identified in the phage screen described above were formatted into a bivalent monospecific native human full-length IgG1 architecture and immobilized to a biosensor on an Octet (Pall ForteBio) biolayer interferometer. Soluble ROR antigens, including the extracellular domains of ROR1 (Acro Cat. No. RO1-H522γ) and ROR2 (Acro Cat. No. R02-H52E5), as well as the individual ROR1 Frizzled (Acro Cat. No. RO1-H5222), Ig-like (Acro Cat. No. RO1-H5221), and Kringle (Acro Cat. No. RO1-H5223) domains, were then added to the system and binding measured.
(§2) ROR binding candidates, formatted in the bivalent monospecific native human full-length IgG1 architecture, were further characterized for binding to ROR1 and/or ROR2. […] ROR binding candidates were also characterized for their binding to specific ROR1 domains.
Background: In BLI a coated tip is dipped into the sample, and binding shifts an interference pattern.

In assay [1] the target is T2, extracellular domain of human ROR1 (human, UniProt Q01973 30-406).
T2 construct: bought protein; biotinylated in the bivalent assay format; also called Acro Cat. No. RO1-H522y
T2 sequence (Q01973 30-406 limits assumed): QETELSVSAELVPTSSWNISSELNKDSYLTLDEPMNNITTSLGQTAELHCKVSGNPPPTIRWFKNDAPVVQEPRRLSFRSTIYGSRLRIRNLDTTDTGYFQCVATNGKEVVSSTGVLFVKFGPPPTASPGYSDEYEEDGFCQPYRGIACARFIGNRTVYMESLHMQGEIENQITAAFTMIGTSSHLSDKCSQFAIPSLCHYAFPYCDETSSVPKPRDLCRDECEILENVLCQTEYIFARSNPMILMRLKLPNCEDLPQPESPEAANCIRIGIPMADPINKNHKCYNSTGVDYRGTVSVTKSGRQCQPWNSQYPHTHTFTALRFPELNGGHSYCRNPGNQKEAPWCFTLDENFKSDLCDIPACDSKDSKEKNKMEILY
Description: BLI, IgG1 on biosensor, soluble ROR ectodomain.
Source text: as §1, §2

The target in assay [2] is T3, extracellular domain of human ROR2 (human, UniProt Q01974 34-403).
T3 construct: bought protein; biotinylated in the bivalent assay format; also called Acro Cat. No. RO2-H52E5
T3 sequence (Q01974 34-403 limits assumed): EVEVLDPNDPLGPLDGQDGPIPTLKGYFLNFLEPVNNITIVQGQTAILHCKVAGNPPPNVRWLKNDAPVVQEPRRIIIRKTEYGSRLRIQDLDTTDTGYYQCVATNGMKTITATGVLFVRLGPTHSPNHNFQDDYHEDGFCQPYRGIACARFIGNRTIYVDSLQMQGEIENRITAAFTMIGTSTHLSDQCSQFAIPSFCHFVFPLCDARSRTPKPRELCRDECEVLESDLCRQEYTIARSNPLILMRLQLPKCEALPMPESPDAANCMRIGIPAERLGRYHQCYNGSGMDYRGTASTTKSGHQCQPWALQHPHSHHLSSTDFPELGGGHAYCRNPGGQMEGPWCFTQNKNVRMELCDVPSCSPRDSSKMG
The assay is described as follows: BLI, IgG1 on biosensor, soluble ROR ectodomain.
Source text: as §1, §2

T1 sequence (Q01973 42-147): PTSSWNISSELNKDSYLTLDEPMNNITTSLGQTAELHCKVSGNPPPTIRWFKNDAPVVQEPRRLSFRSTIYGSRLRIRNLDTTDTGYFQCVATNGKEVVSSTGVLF

B1: I2C-13 IgG1 (antibody, V domains shown)
VH: EVQLVESGGGLVQPGGSLRLSCAASGFTFSSYGIHWVRQAPGKGLEWVAYIHSGIGYTIYADSVKGRFTISADTSKNTAYLQMNSLRAEDTAVYYCARTSSTSTSVMDYWGQGTLVTVSS
VL: DIQMTQSPSSLSASVGDRVTITCRASQSVSSAVAWYQQKPGKAPKLLIYSASSLYSGVPSRFSGSRSGTDFTLTISSLQPEDFATYYCQQTYWSPGTFGQGTKVEIK
notes: human IgG1
B1: the binding result (with ROR1 Ig-like domain; in assay [1]; in assay [2]) was “binds” in each case.

B2: I2C-18 IgG1 (antibody, V domains shown)
VH: EVQLVESGGGLVQPGGSLRLSCAASGFTFAGYPIHWVRQAPGKGLEWVAAIDPDGGYTYYADSVKGRFTISADTSKNTAYLQMNSLRAEDTAVYYCARHTGFHRYRGMDYWGQGTLVTVSS
VL: DIQMTQSPSSLSASVGDRVTITCRASQSVSSAVAWYQQKPGKAPKLLIYSASSLYSGVPSRFSGSRSGTDFTLTISSLQPEDFATYYCQQYYWFPPTFGQGTKVEIK
notes: human IgG1
Take B2: the binding result in assay [1] and in assay [2] was “binds” throughout.

B3: I2C-7 IgG1 (antibody, V domains shown)
VH: EVQLVESGGGLVQPGGSLRLSCAASGFTFDSYYIHWVRQAPGKGLEWVAWIDPYGLDTKYADSVKGRFTISADTSKNTAYLQMNSLRAEDTAVYYCAREPGDYGMDYWGQGTLVTVSS
VL: DIQMTQSPSSLSASVGDRVTITCRASQSVSSAVAWYQQKPGKAPKLLIYSASSLYSGVPSRFSGSRSGTDFTLTISSLQPEDFATYYCQQAYGSLLTFGQGTKVEIK
notes: human IgG1
Regarding B3, the binding result in assay [1] is listed as “no binding”; in assay [2] it was “binds”.

B4: I2A-33 IgG1 (antibody, V domains shown)
VH: EVQLVESGGGLVQPGGSLRLSCAASGFTFDDYYIHWVRQAPGKGLEWVAWIDSYGGYTSYADSVKGRFTISADTSKNTAYLQMNSLRAEDTAVYYCARSSYYYPGGFDYWGQGTLVTVSS
VL: DIQMTQSPSSLSASVGDRVTITCRASQSVSSAVAWYQQKPGKAPKLLIYSASSLYSGVPSRFSGSRSGTDFTLTISSLQPEDFATYYCQQWDSTLYTFGQGTKVEIK
notes: human IgG1
With B4, in assay [2], the binding result was “no binding”.

B5: I2A-12 IgG1 (antibody, V domains shown)
VH: EVQLVESGGGLVQPGGSLRLSCAASGFTFTTYYIHWVRQAPGKGLEWVAYISPEDGYTSYADSVKGRFTISADTSKNTAYLQMNSLRAEDTAVYYCARAYYSAVMDYWGQGTLVTVSS
VL: DIQMTQSPSSLSASVGDRVTITCRASQSVSSAVAWYQQKPGKAPKLLIYSASSLYSGVPSRFSGSRSGTDFTLTISSLQPEDFATYYCQQSWSPATTFGQGTKVEIK
notes: human IgG1
As to B5, the binding result in assay [2] was “no binding”.

B6: I2C-19 IgG1 (antibody, V domains shown)
VH: EVQLVESGGGLVQPGGSLRLSCAASGFTFTSYDIHWVRQAPGKGLEWVAWIDPGLSYTSYADSVKGRFTISADTSKNTAYLQMNSLRAEDTAVYYCARASIGGGVPVMDYWGQGTLVTVSS
VL: DIQMTQSPSSLSASVGDRVTITCRASQSVSSAVAWYQQKPGKAPKLLIYSASSLYSGVPSRFSGSRSGTDFTLTISSLQPEDFATYYCQQYVTGPYTFGQGTKVEIK
notes: human IgG1
Turning to B6, the binding result in assay [1] was “no binding”; in assay [2] it was “binds”.

B7: I2A-37 IgG1 (antibody, V domains shown)
VH: EVQLVESGGGLVQPGGSLRLSCAASGFTFSWYGIHWVRQAPGKGLEWVAYIDSYTSSTYYADSVKGRFTISADTSKNTAYLQMNSLRAEDTAVYYCARSHFGHYDYVMDYWGQGTLVTVSS
VL: DIQMTQSPSSLSASVGDRVTITCRASQSVSSAVAWYQQKPGKAPKLLIYSASSLYSGVPSRFSGSRSGTDFTLTISSLQPEDFATYYCQQAYDQLYTFGQGTKVEIK
notes: human IgG1
As for B7, the binding result in assay [2] is “no binding”.

B8: I2A-8 IgG1 (antibody, V domains shown)
VH: EVQLVESGGGLVQPGGSLRLSCAASGFTFYGYYIHWVRQAPGKGLEWVAGIRPGGTYTYYADSVKGRFTISADTSKNTAYLQMNSLRAEDTAVYYCARYRYPAFDYWGQGTLVTVSS
VL: DIQMTQSPSSLSASVGDRVTITCRASQSVSSAVAWYQQKPGKAPKLLIYSASSLYSGVPSRFSGSRSGTDFTLTISSLQPEDFATYYCQQRRQHLWTFGQGTKVEIK
notes: human IgG1
For B8, the binding result in assay [2] is “no binding”.

B9: I2C-21 IgG1 (antibody, V domains shown)
VH: EVQLVESGGGLVQPGGSLRLSCAASGFTFSSYYIHWVRQAPGKGLEWVAWIDPYISYTYYADSVKGRFTISADTSKNTAYLQMNSLRAEDTAVYYCARDSELVSGYAMDYWGQGTLVTVSS
VL: DIQMTQSPSSLSASVGDRVTITCRASQSVSSAVAWYQQKPGKAPKLLIYSASSLYSGVPSRFSGSRSGTDFTLTISSLQPEDFATYYCQQGDSSLVTFGQGTKVEIK
notes: human IgG1
On to B9, for which the figures for the binding result in assay [1] and in assay [2] were “no binding” and “binds”, respectively.

B10: I2C-25 IgG1 (antibody, V domains shown)
VH: EVQLVESGGGLVQPGGSLRLSCAASGFTFSDYYIHWVRQAPGKGLEWVAYIAPYGGFTYYADSVKGRFTISADTSKNTAYLQMNSLRAEDTAVYYCARDSYRRGYVSGFDYWGQGTLVTVSS
VL: DIQMTQSPSSLSASVGDRVTITCRASQSVSSAVAWYQQKPGKAPKLLIYSASSLYSGVPSRFSGSRSGTDFTLTISSLQPEDFATYYCQQRYSSPSTFGQGTKVEIK
notes: human IgG1
For B10, the results for the binding result in assay [1] and in assay [2] were “no binding” and “binds”, respectively.

B11: I2C-22 IgG1 (antibody, V domains shown)
VH: EVQLVESGGGLVQPGGSLRLSCAASGFTFSSYSIHWVRQAPGKGLEWVAAIYPYWGTTEYADSVKGRFTISADTSKNTAYLQMNSLRAEDTAVYYCARPSGVTYGYALDYWGQGTLVTVSS
VL: DIQMTQSPSSLSASVGDRVTITCRASQSVSSAVAWYQQKPGKAPKLLIYSASSLYSGVPSRFSGSRSGTDFTLTISSLQPEDFATYYCQQYYYSPWTFGQGTKVEIK
notes: human IgG1
Consider B11, for which the binding result in assay [1] and in assay [2] was “binds” in each case.

B12: I2A-35 IgG1 (antibody, V domains shown)
VH: EVQLVESGGGLVQPGGSLRLSCAASGFTFSAYDIHWVRQAPGKGLEWVAWIDPYGGDTDYADSVKGRFTISADTSKNTAYLQMNSLRAEDTAVYYCARSPSYMQYGGLDYWGQGTLVTVSS
VL: DIQMTQSPSSLSASVGDRVTITCRASQSVSSAVAWYQQKPGKAPKLLIYSASSLYSGVPSRFSGSRSGTDFTLTISSLQPEDFATYYCQQYYSSLLTFGQGTKVEIK
notes: human IgG1
For B12, in the assay with ROR1 Ig-like domain, the binding result is recorded as “binds”.

B13: I2C-3 IgG1 (antibody, V domains shown)
VH: EVQLVESGGGLVQPGGSLRLSCAASGFTFSHYWIHWVRQAPGKGLEWVALIAPGGDYTSYADSVKGRFTISADTSKNTAYLQMNSLRAEDTAVYYCARSGLPGFDYWGQGTLVTVSS
VL: DIQMTQSPSSLSASVGDRVTITCRASQSVSSAVAWYQQKPGKAPKLLIYSASSLYSGVPSRFSGSRSGTDFTLTISSLQPEDFATYYCQQYKSSPLTFGQGTKVEIK
notes: human IgG1
As to B13, the binding result in assay [1] is recorded as “no binding”; in assay [2] it was “binds”.

B14: I2C-5 IgG1 (antibody, V domains shown)
VH: EVQLVESGGGLVQPGGSLRLSCAASGFTFSSYDIHWVRQAPGKGLEWVAWIYPYWGYTIYADSVKGRFTISADTSKNTAYLQMNSLRAEDTAVYYCARGTYAPALDYWGQGTLVTVSS
VL: DIQMTQSPSSLSASVGDRVTITCRASQSVSSAVAWYQQKPGKAPKLLIYSASSLYSGVPSRFSGSRSGTDFTLTISSLQPEDFATYYCQQFYSYLSTFGQGTKVEIK
notes: human IgG1
B14: the figures for the binding result in assay [1] and in assay [2] were “no binding” and “binds”, respectively.

B15: I2A-30 IgG1 (antibody, V domains shown)
VH: EVQLVESGGGLVQPGGSLRLSCAASGFTFDSYFIHWVRQAPGKGLEWVAYIYSWGSYTHYADSVKGRFTISADTSKNTAYLQMNSLRAEDTAVYYCARGHRRYFALDYWGQGTLVTVSS
VL: DIQMTQSPSSLSASVGDRVTITCRASQSVSSAVAWYQQKPGKAPKLLIYSASSLYSGVPSRFSGSRSGTDFTLTISSLQPEDFATYYCQQVYFTPGTFGQGTKVEIK
notes: human IgG1
For the molecule B15, in assay [2], the binding result was “no binding”.

B16: I2C-26 IgG1 (antibody, V domains shown)
VH: EVQLVESGGGLVQPGGSLRLSCAASGFTFSDYYIHWVRQAPGKGLEWVADIDSYGGFTYYADSVKGRFTISADTSKNTAYLQMNSLRAEDTAVYYCARDPHFLDDVYVLDYWGQGTLVTVSS
VL: DIQMTQSPSSLSASVGDRVTITCRASQSVSSAVAWYQQKPGKAPKLLIYSASSLYSGVPSRFSGSRSGTDFTLTISSLQPEDFATYYCQQYSWGLWTFGQGTKVEIK
notes: human IgG1
As to B16, the results for the binding result in assay [1] and in assay [2] were “no binding” and “binds”, respectively.

B17: I2A-24 IgG1 (antibody, V domains shown)
VH: EVQLVESGGGLVQPGGSLRLSCAASGFTFSTYGIHWVRQAPGKGLEWVAAIYPGTSYTGYADSVKGRFTISADTSKNTAYLQMNSLRAEDTAVYYCAREYFMGMDYWGQGTLVTVSS
VL: DIQMTQSPSSLSASVGDRVTITCRASQSVSSAVAWYQQKPGKAPKLLIYSASSLYSGVPSRFSGSRSGTDFTLTISSLQPEDFATYYCQQYYYWPGTFGQGTKVEIK
notes: human IgG1
For B17, the binding result in assay [1] and in assay [2] was “binds” in each case.
